Self-cleavage data for 167 variants are collected here from the RNAGym collection of RNA variant scans (doi:10.7554/elife.90254).

The chains are these.
B1: OR4K15 (parent)
chain: GUUAACGGUCAUAGGCCAUGGAAACUAGGAGCACCAUUUCGCUGCCAGUGAAGAAAUGAACAAAGAAAAUCUGGGCCAGGCAGGCAUCAAAAGAAAUAGUCUUGCGCUCAACCAGAAAGUCUGUAAUCAUUUUAAGGGUA

The variants in this data set derive from B1. The data set is described as follows: self-cleavage, relative activity (ratio to wild type); higher = more cleavage; in vitro, sequencing; the parent is a self-cleaving ribozyme.
In the case of A62U A82G, the self-cleavage amounted to 0.67.

With A64U A82G, the self-cleavage worked out at 0.71.

Regarding A63G U97A, the self-cleavage was 1.94.

For A63G A111G, the self-cleavage was 0.02.

In the case of A63G A111C, the self-cleavage was 0.02.

Consider A62G C112U, for which the self-cleavage was found to be 0.01.

On to A62G G84A, for which the self-cleavage is 1.73.

On to A62G G84C, for which the self-cleavage came out at 0.49.

Take A62U A69G: the self-cleavage was 0.81.

In the case of A64U A135G, the self-cleavage came to 1.22.

For the variant A63U A118U, the self-cleavage stood at 1.02.

For the variant A62G A95U, the self-cleavage was determined as 2.

With A60U A63G, the self-cleavage stood at 0.71.

As for C61U A64U, the self-cleavage amounted to 0.27.

Turning to A62U A140G, the self-cleavage is 0.67.

In the case of C61U G138A, the self-cleavage worked out at 1.4.

For the variant A64U G75A, the self-cleavage is 0.1.

In the case of A62C U132C, the self-cleavage is 1.25.

A62U U130C: the self-cleavage is 0.84.

Regarding A62G A134U, the self-cleavage is 1.75.

On to A64G U102A, for which the self-cleavage came out at 0.68.

In the case of A63G A118G, the self-cleavage was 0.83.

With A63G A118U, the self-cleavage was 0.84.

Regarding A62G A68U, the self-cleavage amounted to 1.33.

With A64U A86G, the self-cleavage was 1.85.

Regarding A62G U122G, the self-cleavage was 2.99.

Turning to A62G U122C, the self-cleavage amounted to 1.27.

As to A64C G80A, the self-cleavage came out at 0.2.

Take A63G C128U: the self-cleavage is 1.95.

Take A64U G79U: the self-cleavage amounted to 0.17.

A63C U139C: the self-cleavage came to 1.97.

As for A63G U120C, the self-cleavage worked out at 1.27.

A63G U120A: the self-cleavage is 0.94.

Take C61U A110G: the self-cleavage was 0.11.

Take A63G A129U: the self-cleavage is 0.61.

In the case of A63G A129G, the self-cleavage was determined as 0.9.

In the case of A64G A134U, the self-cleavage turned out to be 1.07.

For A60U A94G, the self-cleavage was 1.5.

Turning to A64U U72A, the self-cleavage is 0.05.

On to A63U A69G, for which the self-cleavage was found to be 0.49.

Turning to A63U A86C, the self-cleavage was determined as 1.78.

As for A60U A78G, the self-cleavage was 0.23.

In the case of A62U A118U, the self-cleavage was determined as 0.82.

With A64U A111G, the self-cleavage came out at 0.04.

Turning to A62U A117G, the self-cleavage was 1.64.

On to A62C A91G, for which the self-cleavage was 1.31.

Regarding A62U C88U, the self-cleavage was 2.34.

As for A63U A90G, the self-cleavage was determined as 1.76.

In the case of A62G G73A, the self-cleavage worked out at 0.15.

For A62U A110G, the self-cleavage turned out to be 0.14.

For A64G G136U, the self-cleavage was 2.02.

Turning to A63U A96U, the self-cleavage is 2.14.

With A64C A82U, the self-cleavage worked out at 0.26.

In the case of A64G C112U, the self-cleavage stood at 0.01.

For A64G A90G, the self-cleavage was 1.13.

With A64G A90U, the self-cleavage was 1.58.

For A62G U72C, the self-cleavage is 0.24.

With A62U A92G, the self-cleavage was 1.34.

With A60U A118G, the self-cleavage was determined as 1.58.

For the variant A64C U103C, the self-cleavage is 0.24.

As for A64C U103A, the self-cleavage worked out at 0.14.

Consider A60U, for which the self-cleavage is 1.29.

Regarding A64C U131C, the self-cleavage is 1.9.

For A62G A67C, the self-cleavage was 1.96.

As for A62G A67G, the self-cleavage stood at 0.96.

For the variant A62G A67U, the self-cleavage stood at 1.82.

Consider A62C U120C, for which the self-cleavage is 0.93.

Turning to A60G U124A, the self-cleavage is 0.75.

As to A60U A66G, the self-cleavage came out at 1.63.

A62C A67G: the self-cleavage turned out to be 0.86.

Turning to A62G C77U, the self-cleavage came to 2.24.

As to A62G A64U, the self-cleavage is 1.23.

Consider A64C A69U, for which the self-cleavage stood at 2.61.

As for A64G U100C, the self-cleavage worked out at 1.22.

For A64G U100A, the self-cleavage was 0.51.

For the variant A60G U122A, the self-cleavage was found to be 1.41.

Consider A60G U122C, for which the self-cleavage was determined as 0.84.

Consider A60G U120C, for which the self-cleavage is 0.82.

Take A63G U127A: the self-cleavage was found to be 1.47.

With A63G U127C, the self-cleavage worked out at 0.58.

Turning to A64G U70A, the self-cleavage came to 0.97.

With A62U U72C, the self-cleavage came to 0.19.

With C61U U87C, the self-cleavage was found to be 1.35.

Turning to A64U A78G, the self-cleavage was found to be 0.47.

Regarding A62G U97C, the self-cleavage amounted to 1.34.

On to A62G U130C, for which the self-cleavage is 1.15.

As for A62G U130G, the self-cleavage is 1.06.

A62C A111G: the self-cleavage is 0.03.

As to A64G A86G, the self-cleavage stood at 1.15.

Take A62U A96G: the self-cleavage came to 1.69.

In the case of A63U A89C, the self-cleavage amounted to 1.22.

Take A63U A98U: the self-cleavage turned out to be 1.84.

Consider A64G U108C, for which the self-cleavage was 0.01.

For the variant A62U G75A, the self-cleavage was 0.06.

Take A62G A82U: the self-cleavage was determined as 0.25.

In the case of A62G A82G, the self-cleavage is 0.49.

For the variant A62U U102C, the self-cleavage is 1.91.

Regarding C61U A89G, the self-cleavage was determined as 1.62.

Consider A62G A117C, for which the self-cleavage is 0.69.

In the case of A62G C81U, the self-cleavage came out at 0.26.

As to A60U U122A, the self-cleavage is 2.08.

As to A63G C105U, the self-cleavage was 0.05.

A64G G84C: the self-cleavage is 0.31.

A62G A111G: the self-cleavage was 0.02.

As to A64U A114U, the self-cleavage was 0.02.

As for A64U A114G, the self-cleavage worked out at 0.46.

Turning to A62G A63G, the self-cleavage turned out to be 1.21.

A62G A89U: the self-cleavage is 1.85.

Consider A62G A89G, for which the self-cleavage is 0.94.

On to A64G A96G, for which the self-cleavage is 1.92.

As for A64G A96U, the self-cleavage was 0.91.

On to A62C A66G, for which the self-cleavage came to 1.51.

For A63G G83A, the self-cleavage worked out at 1.84.

Regarding A64U A91G, the self-cleavage was 1.04.

In the case of A62U A94G, the self-cleavage came out at 1.69.

Turning to A62G A116G, the self-cleavage came out at 0.64.

As for A64G A126G, the self-cleavage was 1.05.

In the case of C61U A140G, the self-cleavage came out at 1.73.

For the variant A60U A111G, the self-cleavage amounted to 0.05.

C61U A86G: the self-cleavage was 1.72.

A64G G137U: the self-cleavage is 2.23.

Take A63U U103A: the self-cleavage was determined as 0.49.

With A62C U108A, the self-cleavage turned out to be 0.02.

For A62U A63U, the self-cleavage was 1.75.

Regarding A64G A82G, the self-cleavage was found to be 0.35.

Regarding A64G A110C, the self-cleavage came to 0.36.

With A64G A110G, the self-cleavage came to 0.22.

Consider C61A A91C, for which the self-cleavage amounted to 2.41.

With A64U A118G, the self-cleavage was 1.42.

With A62G U127C, the self-cleavage amounted to 0.38.

For A63U U131C, the self-cleavage amounted to 1.33.

As for A63U U131A, the self-cleavage stood at 2.65.

Take A62G G80A: the self-cleavage was 0.35.

In the case of A62G G80C, the self-cleavage was determined as 0.13.

On to A62G A86G, for which the self-cleavage was found to be 1.4.

As to A64U A67G, the self-cleavage was 1.32.

Turning to A60U A117U, the self-cleavage is 1.11.

Regarding A63G A86C, the self-cleavage is 1.21.

Take A63G A86G: the self-cleavage stood at 1.47.

With A62U A66G, the self-cleavage came out at 1.58.

Regarding A60U A140G, the self-cleavage amounted to 2.47.

Regarding A60U A140U, the self-cleavage was determined as 1.59.

Regarding A64U A95G, the self-cleavage amounted to 1.95.

Regarding A62G G75C, the self-cleavage was 0.18.

For the variant A62G G75U, the self-cleavage was determined as 0.15.

Consider A64G U87C, for which the self-cleavage worked out at 0.87.

Turning to A63U U87A, the self-cleavage was 1.18.

A60U A82U: the self-cleavage was 0.45.

With A60U A82G, the self-cleavage was found to be 0.66.

For the variant A63G C88U, the self-cleavage came out at 1.69.

Consider A63U U108C, for which the self-cleavage was 0.01.

Take A60U A86U: the self-cleavage worked out at 1.67.

As to A62G A98G, the self-cleavage was found to be 0.4.

With A62G A98U, the self-cleavage turned out to be 1.39.

As for C61U A91U, the self-cleavage came out at 1.73.

With C61U A91G, the self-cleavage was 0.87.

As for A62C A69G, the self-cleavage stood at 0.62.

In the case of A64U A92G, the self-cleavage worked out at 1.11.

Take A64U C113U: the self-cleavage is 0.05.

On to A62G U120C, for which the self-cleavage was 1.07.

As to A62G U120G, the self-cleavage came to 0.84.

In the case of A62G U70C, the self-cleavage turned out to be 0.47.

With A62G U70A, the self-cleavage turned out to be 1.59.

Consider A64G A89C, for which the self-cleavage was found to be 0.64.

For the variant A64G A89G, the self-cleavage turned out to be 1.49.

A62G C113U: the self-cleavage was determined as 0.14.

Take A60G U132C: the self-cleavage was found to be 1.07.
